Experiments:
EGFR-AP fusion protein = biological target: T1, EGFR-AP fusion protein (UniProt P00533 25-645); test: competitive ELISA: antibody pre-mixed with biotinylated HLX05, EGFR-AP added, capture on avidin wells, pNPP, A405; competitor: biotinylated HLX05
T1 construct: treated as one molecule; also called Alkaline phosphatase-conjugated EGFR; not shown: alkaline phosphatase (AP) part
Procedure: Alkaline phosphatase-conjugated EGFR was then added to the pre-mixed solution and pre-incubated for 1 hour at room temperature. The preincubation mix was then added to mictotiter wells coated with avidin. Following a one-hour incubation, all wells were washed with PBST, and pNPP was added to each well. Following a second incubation at 37° C., the reaction was stopped.

[1] = biological target: T2, epidermal growth factor receptor (EGFR) (UniProt P00533 25-645, limits assumed); test: SPR; against HLX05
[2] = biological target: T2, epidermal growth factor receptor (EGFR); test: kinetics of Table 6 (method not named, presumably SPR); lower end tied to 1-26/3-67 by Table 6 (2.2)
[3] = biological target: T2, epidermal growth factor receptor (EGFR); test: kinetics, method not named for Table 6 (presumably SPR)
[4] = biological target: T3, EGFR antigen produced in-house (UniProt P00533 25-645, limits assumed); test: off-rate ELISA in wells coated with EGFR antigen produced in-house, A405
T3 construct: May be the same preparation as m1
Source text: The 1-26 heavy chain was selected and used as the basis for generating CDR-H2 libraries for deletion of a glycosylation site. CDR-H2 nucleic acid libraries were generated via PCR, cloned into a phage display vector, and transformed into E. coli to produce a library of phages.

[5] = biological target: T2, epidermal growth factor receptor (EGFR); test: kinetics, method not named for Table 6 (presumably SPR); against HLX05
[6] = biological target: T2, epidermal growth factor receptor (EGFR); test: SPR

IC50 (read off the curve) (EGFR-AP fusion protein): ~4 µg/mL
Fold difference in KD [1]: 1.2 fold
fold higher affinity than HLX05 [2]: 2 to 3 fold
Kd [3]: 0.111 nM
koff [3]: 0.000995 s⁻¹
kon [3]: 8.93e+06 M⁻¹ s⁻¹
EC50 (read off the curve) [4]: ~0.3 µg/mL
Fold difference in KD [5]: 2.2 fold
Kd [6]: 0.109 nM
koff [6]: 0.000553 s⁻¹
kon [6]: 5.09e+06 M⁻¹ s⁻¹
B1: 1-26/3-67 (LC/HC) (antibody, V domains shown)
VH: EVQLVESGGGLVQPGGSLRLSCAASGFSLTNYGVHWVRQAPGKGLEWLGVIWSGGNTDYGNEFTSRFTISRDNAKNSLYLQMNSLRAEDTAVYYCARALDYYDYEFAYWGQGTMVTVSS
VL: EIVLTQSPATLSLSPGERATLSCRASQSIGTNIHWYQQKPGQAPRLLIKYASESISGIPARFSGSGSGTDFTLTISSLEPEDFAVYYCQQNNNWPTSFGGGTKVEIK
notes: also called HLX07; HLX07 1-26/3-67
